Among the data in patent US20230348867 are binding signal values, retold here.

Common to all, as to assay: cell_activity
Series [1] deals with SB100X (Variant 27) K14R,K33A,R115H,R214D,K215A,E216V,N217Q,M243H,T314N (synthetic). The conditions noted are these: human CD34+ HSC, GFP+ CFU-E.
In series [2] the test system is SB Variant 14 K14R,K30R,R143L,A205K,H207V,K208R,D210E,R214D,K215A,E216V,N217Q,M243H (synthetic). The conditions noted are these: HeLa transposition.
In series [3] the test system is SB Variant 6 K33A,T83A,R214D,K215A,E216V,N217Q,G317E (synthetic). The conditions noted are these: HeLa transposition.
Series [4] has as its system SB Variant 17 K14R,K30R,A205K,H207V,K208R,D210E,R214D,K215A,E216V,N217Q,M243H,T314N (synthetic). The conditions noted are these: HeLa transposition.
Series [5] concerns SB Variant 16 K14R,K30R,A205K,H207V,K208R,D210E,R214D,K215A,E216V,N217Q,M243H,E267D (synthetic). The conditions noted are these: HeLa transposition.
The subject of series [6] is SB Variant 15 K14R,K30R,R147E,A205K,H207V,K208R,D210E,R214D,K215A,E216V,N217Q,M243H (synthetic). To be noted: HeLa transposition.
The subject of series [7] is SB Variant 3 (6A5) K14R,K30R,A205K,H207V,K208R,D210E,R214D,K215A,E216V,N217Q,M243H (synthetic). The conditions noted are these: HeLa transposition.
Series [8] concerns SB Variant 5 K13A,K33A,R214D,K215A,E216V,N217Q (synthetic). The conditions noted are these: HeLa transposition.
For series [9], the system named is SB Variant 18 K14R,K30R,A205K,H207V,K208R,D210E,R214D,K215A,E216V,N217Q,M243H,G317E (synthetic). The conditions noted are these: HeLa transposition.
The test system of series [10] is SB Variant 7 (12B1) K14R,T83A,M243Q (synthetic). To be noted: HeLa transposition.
Series [11] deals with SB Variant 1 (2G6/6G2) K14R,R214D,K215A,E216V,N217Q (synthetic). The conditions noted are these: HeLa transposition.
Series [12] concerns SB10 Sleeping Beauty transposase (synthetic (reconstructed from fish)). The conditions noted are these: HeLa transposition, G418 colonies, reference.
Series [13] concerns SB Variant 2 (3D5) K33A,R115H,R214D,K215A,E216V,N217Q,M243H (synthetic). To be noted: HeLa transposition.
Series [14] has as its system SB Variant 20 K14R,K30R,R147E,A205K,H207V,K208R,D210E,R214D,K215A,E216V,N217Q,M243H,T314N (synthetic). The conditions noted are these: HeLa transposition.
The test system of series [15] is SB Variant 12 K14R,T83A,M243Q,T314N (synthetic). The conditions noted are these: HeLa transposition.
For series [16], the system named is SB Variant 21 K14R,K30R,R143L,A205K,H207V,K208R,D210E,R214D,K215A,E216V,N217Q,M243H,E267D (synthetic). The conditions noted are these: HeLa transposition.
Series [17] has as its system SB Variant 4 K13D,K33A,T83A,H207V,K208R,D210E,M243Q (synthetic). To be noted: HeLa transposition.
Series [18] concerns SB Variant 8 K14R,T83A,I100L,M243Q (synthetic). The conditions noted are these: HeLa transposition.
Series [19] has as its system SB M3a (Variant 30) K13A,K33A,T83A,R214D,K215A,E216V,N217Q (synthetic). To be noted: HeLa transposition.
Series [20] deals with SB Variant 23 K14R,K30R,R143L,A205K,H207V,K208R,D210E,R214D,K215A,E216V,N217Q,M243H,G317E (synthetic). To be noted: HeLa transposition.

Take pT2-HB-CAG-GFP SB transposon: the binding signal in series [1] turned out to be 100 fold vs SB10.

With “pTNeo (SB inverted repeats flanking NeoR)”, the binding signal in [2] was determined as 40 fold vs SB10; in series [3], 20 fold vs SB10; in series [4], 25 fold vs SB10; in series [5], 30 fold vs SB10; in [6] it was 30 fold vs SB10; in series [7], 30 fold vs SB10. Further, the binding signal in series [8] amounted to 20 fold vs SB10; in [9] it was 25 fold vs SB10; in series [10], 15 fold vs SB10; in [11], 20 fold vs SB10; in series [12] it was 1 fold vs SB10; in series [13], 30 fold vs SB10. Further, the binding signal is 40 fold vs SB10 in [14]; 10 fold vs SB10 in [15]; 50 fold vs SB10 in series [16]; 20 fold vs SB10 in series [17]; 5 fold vs SB10 in [18]; 10 fold vs SB10 in [19]. The substance further showed a binding signal in series [20] of 35 fold vs SB10.
